Assay results published in paper PMC7611867.

B1: 33 bp (dsDNA)
DNA 1: TAGCAATGTAATCGTCTATGACGTGCATAGCGC
DNA 2: TAGCGCTATGCACGTCATAGACGATTACATTGC
B2: 24 bp (dsDNA)
DNA 1: TAGCAATGTAATCGTCTATGACGT
DNA 2: TAACGTCATAGACGATTACATTGC
B3: 32 bp (dsDNA)
DNA 1: TAGCAATGTAATCGTCTATGACGTGATAGCGC
DNA 2: TAGCGCTATCACGTCATAGACGATTACATTGC
B4: 31 bp (dsDNA)
DNA 1: TAGCAATGTAATCGTCTATGACGTGTAGCGC
DNA 2: TAGCGCTACACGTCATAGACGATTACATTGC
B5: 30 bp (dsDNA)
DNA 1: TAGCAATGTAATCGTCTATGACGTTAGCGC
DNA 2: TAGCGCTAACGTCATAGACGATTACATTGC
B6: 25 bp (dsDNA)
DNA 1: TAGCAATGTAATCGTCTATGACGTT
DNA 2: TAAACGTCATAGACGATTACATTGC
B7: 34 bp (dsDNA)
DNA 1: TAGCAATGTAATCGTCTATGACGTGTCATAGCGC
DNA 2: TAGCGCTATGACACGTCATAGACGATTACATTGC

Molecular target: T1, Spo11;Rec102;Rec104;Ski8 (Saccharomyces cerevisiae;Saccharomyces …, UniProt P23179;Q02721;P33323;Q02793 1-398;1-264;1-182;1-397, |||)
T1 sequence (P23179 whole entry, chain 1 of 4): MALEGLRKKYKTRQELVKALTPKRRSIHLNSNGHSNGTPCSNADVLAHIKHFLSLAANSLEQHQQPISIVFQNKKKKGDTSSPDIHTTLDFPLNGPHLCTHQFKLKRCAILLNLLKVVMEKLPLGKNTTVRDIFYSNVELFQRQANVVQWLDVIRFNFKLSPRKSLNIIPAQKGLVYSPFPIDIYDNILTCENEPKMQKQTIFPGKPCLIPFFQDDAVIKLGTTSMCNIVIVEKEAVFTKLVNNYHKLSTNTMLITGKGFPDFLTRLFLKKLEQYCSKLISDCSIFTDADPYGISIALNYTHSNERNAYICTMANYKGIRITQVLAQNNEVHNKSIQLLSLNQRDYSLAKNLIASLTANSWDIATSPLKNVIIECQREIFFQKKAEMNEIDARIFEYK
T1 sequence (Q02721 whole entry, chain 2 of 4): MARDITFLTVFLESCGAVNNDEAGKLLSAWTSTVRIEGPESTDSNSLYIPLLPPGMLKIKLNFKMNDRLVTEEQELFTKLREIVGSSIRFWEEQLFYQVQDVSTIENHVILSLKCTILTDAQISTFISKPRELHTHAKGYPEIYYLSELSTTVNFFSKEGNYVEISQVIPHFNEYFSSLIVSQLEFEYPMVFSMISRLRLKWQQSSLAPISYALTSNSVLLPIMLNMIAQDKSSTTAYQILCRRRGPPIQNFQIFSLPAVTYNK
T1 sequence (P33323 whole entry, chain 3 of 4): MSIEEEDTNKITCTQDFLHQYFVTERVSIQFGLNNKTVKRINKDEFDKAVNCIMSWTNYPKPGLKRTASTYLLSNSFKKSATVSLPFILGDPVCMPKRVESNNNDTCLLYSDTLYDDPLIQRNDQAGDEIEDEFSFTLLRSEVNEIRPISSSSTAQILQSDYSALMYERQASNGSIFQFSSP
T1 sequence (Q02793 whole entry, chain 4 of 4): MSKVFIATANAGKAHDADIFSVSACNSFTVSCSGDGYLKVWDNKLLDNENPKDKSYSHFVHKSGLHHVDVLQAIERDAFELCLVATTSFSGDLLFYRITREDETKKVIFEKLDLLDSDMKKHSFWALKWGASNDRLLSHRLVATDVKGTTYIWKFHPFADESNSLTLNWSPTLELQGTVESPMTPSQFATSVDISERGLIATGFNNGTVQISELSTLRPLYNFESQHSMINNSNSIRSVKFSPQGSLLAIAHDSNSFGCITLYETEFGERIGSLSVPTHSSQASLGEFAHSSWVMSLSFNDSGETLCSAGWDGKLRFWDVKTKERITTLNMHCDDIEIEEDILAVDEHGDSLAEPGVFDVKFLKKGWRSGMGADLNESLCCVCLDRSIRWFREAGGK
Experiment: EMSA

Binder | binding result
B1 | binds
B2 | binds
B3 | binds
B4 | binds
B5 | binds
B6 | binds

Molecular target: T1, Spo11;Rec102;Rec104;Ski8
Experiment: EMSA
Remark: another data set of the same source

Binder | binding result
B7 | binds
